From paper PMC12354254
Several values for one entry are separate records, joined by “and”; a condition that tells them apart may be missing. Identical values can stand only once.

Biological target: Brucella ovis PhyK (HWE-family histidine kinase, BOV_1602) (Brucella ovis)
Assay: SEC

Question: With “Brucella ovis PhyK (HWE-family histidine kinase, BOV_1602) (enzyme)” as the substance, how does the stoichiometry N read?
Answer: 6 and 2
